Reference: paper PMC12915131 (2025)

Molecular target: Chlamydia psittaci BioE (Chlamydia psittaci)
Assay: SPR

B1: stearoyl-ACP (E. coli acyl carrier protein carrying a C18 acyl group) (natural protein)
chain: STIEERVKKIIGEQLGVKQEEVTNNASFVEDLGADSLDTVELVMALEEEFDTEIPDEEAEKITTVQAAIDYINGHQA
modifications: holo-ACP carrying a stearoyl (C18) group, made with VhAasS
**Q.** Which koff does the source give for B1 here?
**A.** 0.00316 s⁻¹
